Assay results taken from the DeepSol protein solubility set.

Experiment: soluble on expression in E. coli; label from the status in PepcDB or PDB records

| Sequence | soluble on expression in E. coli |
| --- | --- |
| MSMLKPSGLKAPTKILKPGSTALKTPTAVVAPVEKTISSEKASSTPSSETQEEFVDDFRVGERVWVNGNKPGFIQFLGETQFAPGQWAGIVLDEPIGKNDGSVAGVRYFQCEPLKGIFTRPSKLTRKVQAEDEANGLQTTPASRATSPLCTSTASMVSSSPSTPSNIPQKPSQPAAKEPSATPPISNLTKTASESISNLSEAGSIKKGERELKIGDRVLVGGTKAGVVRFLGETDFAKGEWCGVELDEPLGKNDGAVAGTRYFQCQPKYGLFAPVHKVTKIGFPSTTPAKAKANAVRRVMATTSASLKRSPSASSLSSMSSVASSVSSRPSRTGLLTETSSRYARKISGTTALQEALKEKQQHIEQLLAERDLERAEVAKATSHVGEIEQELALARDGHDQHVLELEAKMDQLRTMVEAADREKVELLNQLEEEKRKVEDLQFRVEEESITKGDLETQTKLEHARIKELEQSLLFEKTKADKLQRELEDTRVATVSEKSRIMELEKDLALRVQEVAELRRRLESNKPAGDVDMSLSLLQEISSLQEKLEVTRTDHQREITSLKEHFGAREETHQKEIKALYTATEKLSKENESLKSKLEHANKENSDVIALWKSKLETAIASHQQAMEELKVSFSKGLGTETAEFAELKTQIEKMRLDYQHEIENLQNQQDSERAAHAKEMEALRAKLMKVIKEKENSLEAIRSKLDKAEDQHLVEMEDTLNKLQEAEIKKEKFAEASEEAVSVQRSMQETVNKLHQKEEQFNMLSSDLEKLRENLADMEAKFREKDEREEQLIKAKEKLENDIAEIMKMSGDNSSQLTKMNDELRLKERDVEELQLKLTKANENASFLQKSIEDMTVKAEQSQQEAAKKHEEEKKELERKLSDLEKKMETSHNQCQELKARYERATSETKTKHEEILQNLQKTLLDTEDKLKGAREENSGLLQELEELRKQAEKAKAAQTAEDAMQIMEQMTKEKTETLASLEDTKQTNAKLQNELDTLKENNLKNVEELNKSKELLTVENQKMEEFRKEIETLKQAAAQKSQQLSALQEENVKLAEELGRSRDEVTSHQKLEEERSVLNNQLLEMKKRESKFIKDADEEKASLQKSISITSALLTEKDAELEKLRNEVTVLRGENASAKSLHSVVQTLESDKVKLELKVKNLELQLKENKRQLSSSSGNTDTQADEDERAQESQQMIDFLNSVIVDLQRKNQDLKMKVEMMSEAALNGNGDDLNNYDSDDQEKQSKKKPRLFCDICDCFDLHDTEDCPTQAQMSEDPPHSTHHGSRGEERPYCEICEMFGHWATNCNDDETF | soluble |
| IGEFSYHVNGNFSIIKNKVISLGVGDVEQKSGMIGNGSDLFLGYPMNMFYGYKTDGVFLTDDEVKEWHDQSKIAPNSKAGDLRYVDISGDGKVDESDKTYLGSKIPQYTFGLGLGAEYKGFDFNILLQGVAKVKGQLTNYAGYAFFQEGNIQKWQAEETWTNNQSNRYPKYPRLEVMSNAGSNNTLGSDFWILDASYLKVRNIQLGYTLPKRITQKFGSSNLRFYISLDNPFSISGYRKGWDPEINTDGSYYPILSTYTFGLTLKF | not soluble |
| DIQMTQSPASLSASVGETVTITCRASGNIHNYLAWYQQKQGKSPQLLVYYTTTLADGVPSRFSGSGSGTQYSLKINSLQPEDFGSYYCQHFWSTPRTFGGGTKLEIKRADAAPTVSIFPPSSEQLTSGGASVVCFLNNFYPKDINVKWKIDGSERQNGVLNSWTDQDSKDSTYSMSSTLTLTKDEYERHNSYTCEATHKTSTSPIVKSFNRNEC | soluble |
| MGYEGIIVVDVRDAEAYKECHIPTAISIPGNKINEDTTKRLSKEKVIITYCWGPACNGATKAAAKFAQLGFRVKELIGGIEYWRKENGEVEGTLGAKADLFWNMKKESLEHHHHHH | not soluble |
| MAHHHHHHMEKLREHSERPVPDMLVLPLTASLPQEVQSRVFEPTPPRCRKVVLATNVAETSITITNLYFVVDSGFCKQNVFDPKTGMEQLKIVPISQAQAQQRAGRAGRIGPGKCFRMYTELQFQMDMEPATVPDIQRSNLFHVVLQLKAMGINDLFALDLMDPPPQETLVSALQKLRYLEALDDDGLLTPLGGRMAQLPIDPSQSKTLLTAVDMGCCEPVLTIVSMLAVQKRGVFYRPRDQHEASDAAKRQFHQPEGDQITLLAVYDAWVANGLSEEWCKRNFLKHRILMEARDTREQLSDMLHKRHASIPHHNDDALTEVRRAITAGYFFNVAKRITDVAYATLAERREVYVHPSSCLRDAPPKYVLYNELQLTNREYMRELLVIEPQWLVELAPAFYSRPRKGKLTKEQRAERLNPILRAWENGSSWRISKLRRRK | not soluble |
| MAHHHHHHMGTLEAQTQGPGSMNLDNVTGGDNVPKEINVIIEISQNSCPVKYEFDKEKNLFCVDRFLPTSMYYPCNYGFIPHTCAGDGDPVDVLVASRFPVMSGAVIRARPVGVLVMHDESGEDVKILAVPTHKVDQYYNNIKDYSDFPVSFLNSISHFFTFYKKLEEDKFVSVEGWKDVTVAEKLILSALIK | soluble |
| MAHHHHHHMIVASSLEVRNYGEWVRQVRAERIIVNCPDEMDVKAMCAWMKRDETKEKQAECWKEVKKHMYLLGPIPRHVFDEEAFTERCGAVKFALQSINDVTVKECFPRGGESPWCSEDPSHKPVRVVREIYEGSVILFNAPMCDCLEERTLKRLPSVAE | not soluble |
| MSLEPKIVRFDLGKEYIILTSALYPEGIIRVNQICSIFVDKSYCSGNPWGDVINWCPSKSAIMFMTAAKNYTFKETDWGKFFISAGIGRSGEDAGCTINIGVFVDKGLNINGLVDLIRTVTEAKAGALRDLGYKFTGTVSDAIAVGSLPGNEYFIGPGTELGKKIAYDIRNTIVELLFKGDDEGHHHHHH | soluble |
| MAKYEILFKQLRLAILRGEYAPNDRLPSENAIAIKHGVSRITSKRALNELAAADLVYRVRGGGTFVKPHKSTTQRQILLVLPFPETTSFGDYPSGIQGTLAGTTWQLKLMANERFIQLNLDELASQYAGIIYYPQNLATELPILMRLYAQKMPLVVLDKQPAALAVPSVTSDNVAGGKIACEHLQSRGHHRIAFLPETPFWQTFTGTVSDRFLGYFNHLKLATSDAALPLRWAQALQACTTAVQLKAYIQAQRITAIIAENDVVALRALQRIQELTSNSDTSIALVGFDNLPAAARNNPALTTVVQDFAAIGAKAVEALLDQINNPEHLFDDQIVVGVKLMVRSSTNQY | not soluble |
| MEWKNDVLRFSGFDYGVSKIRMLNEELHSECDQLSKSNESTSLKDITEEPKDEKLESIIETAKNKESEKEENSHVFNDCEFDAMTERKIENFYFRNVEQAEKKMKHLTTLKSKWSEPWQTGEEIVAKVYLKPKNHENPWKDGTFQEKEAVEMQKNGKKHGRCIIS | not soluble |
| PKVSVIMTSYNKSDYVAKSISSILSQTFSDFELFIMDDNSNEETLNVIRPFLNDNRVRFYQSDISGVKERTEKTRYAALINQAIEMAEGEYITYATDDNIYMPDRLLKMVRELDTHPEKAVIYSASKTYHLNENRDIVKETVRPAAQVTWNAPCAIDHCSVMHRYSVLEKVKEKFGSYWDESPAFYRIGDARFFWRVNHFYPFYPLDEELDLNYITDQSIHFQLFELEKNEFVRNLPPQRNCRELRESLKKLGMG | soluble |
| MTKIFIRDDNGGTEMSQDPFQEREAEKYANPIPSREFILEHLTKREKPASRDELAVELHIEGEEQLEGLRRRLRAMERDGQLVFTRRQCYALPERLDLVKGTVIGHRDGYGFLRVEGRKDDLYLSSEQMKTCIHGDQVLAQPLGADRKGRREARIVRVLVPKTSQIVGRYFTEAGVGFVVPDDSRLSFDILIPPDQIMGARMGFVVVVELTQRPTRRTKAVGKIVEVLGDNMGTGMAVDIALRTHEIPYIWPQAVEQQVAGLKEEVPEEAKAGRVDLRDLPLVTIDGEDARDFDDAVYCEKKRGGGWRLWVAIADVSYYVRPPTPLDREARNRGTSVYFPSQVIPMLPEVLSNGLCSLNPQVDRLCMVCEMTVSSKGRLTGYKFYEAVMSSHARLTYTKVWHILQGDQDLREQYAPLVKHLEELHNLYKVLDKAREERGGISFESEEAKFIFNAERRIERIEQTQRNDAHKLIEECMILANISAARFVEKAKEPALFRIHDKPSTEAITSFRSVLAELGLELPGGNKPEPRDYAELLESVADRPDAEMLQTMLLRSMKQAIYDPENRGHFGLALQSYAHFTSPIRRYPDLMLHRAIKYLLAKEQGHQGNTTETGGYHYSMEEMLQLGQHCSMAERRADEATRDVSDWLKCDFMLDQVGNVFKGVISSVTGFGFFVRLDDLFIDGLVHVSSLDNDYYRFDQVGQRLMGESSGQTYRLGDRVEVRVEAVNMDERKIDFSLISSERAPRNVGKTAREKAKKGDAGKKGGKRRQVGKKVNFEPDSAFRGEKKTKPKAAKKDARKAKKPSAKTQKIAAATKAKRAAKKKVAE | not soluble |
| MGSDKIHHHHHHMDNPFARFAGTRTIQANLSLLEENYVPDSFPHRENQINEMVTILSSIMRGSRPSNIIVYGKTGTGKTSTTKYVTKMLVEAASNVSVVYVNCEIYDSPYSILVAIANSAGEEKIPELGWPIDRIYRETVERVEKTGKFFIIILDEMDRLIKKNGGDSLYVLLKLMTDVDSVRVSMIGITNDTTVLENIDARIKSRLNQESIVFPPYNASEIRDIISSRLDKVLGPGVVDDTAINLCAAIGAQEHGDARKAIDLMRIAIEIAIRENRNKITENEIYEARERYEMNVLREAISTLPLHSKIVLLSAVVTQEIEPNSVITGEIYENYRRICDDLGFSPLSPRRISDLLTELADYGLLVMDDRNMGKYGRTRSFSVVHQAETIKKYLLEDENLSMFKSSKMPKQTRFDT | not soluble |
| MANVVAEGAYPYCRLTDQPLSVDEVLAAVSGPEQGGIVIFVGNVRDHNAGHDVTRLFYEAYPPMVIRTLMSIIGRCEDKAEGVRVAVAHRTGELQIGDAAVVIGASAPHRAEAFDAARMCIELLKQEVPIWKKEFSSTGAEWVGDRP | soluble |
| ESLSGEDAFPYRHQIVEIPPIELIVIEHRLHQLTCGQCGTNTRAKLPDDVNPSEYGVRVVAMVALLSGVYRNSQRMVQSALADLFGISMSLGTVNTLRIEANNAVANCVDEAKLYVQHSNVVGADETGFNQGNIDGGNPKQRQAWLWVGVTPLVTFFEVALTRCTSAVKNLLGENFAGILTSDRHGAYNWVDI | not soluble |
| MGSDKIHHHHHHMLSHRLQDTSLRYFLEVVRTGSLTEAAQRLNVTVSAVSRQVAALESWLGVPLFDRRPRGMVASAAGELLAAYALRNALEADRVVTEIDALQGLRRGRVRVASSAGFAIEFLPRAIADFRERYPGLHFHVRVAPPAEVTGIVLHGDADIGITYSRAAEQGIRVEHRQAAPVIAIMRPDHALARFRSITLSQMLPYPLALPEGDNTVRQLFDIACGERGVAFEPVLVSNQFETLTSFVLHGGGLSISGGVTVGDRLRRGELHAATIRERGMKSRAIELQTLAGRTLPEGVRTFLGFVRDRLVEEAGIGS | not soluble |
| GKLDATLRAIVHTAAELVDARYGALGVRGYDHRLVEFVYEGIDEETRHLIGSLPEGRGVLGALIEEPKPIRLDDISRHPASVGFPLHHPPMRTFLGVPVRIRDEVFGNLYLTEKADGQPFSDDDEVLVQALAAAAGIAVDNARLFEESR | soluble |
